The values below are quoted from earlier work in paper PMC4934914.

As usually defined, the Kd is the constant that tells how readily two partners part at equilibrium.

Data set [1] deals with BsHemH (Bacillus subtilis) (UniProt P32396).
A further data set deals with IscS (Escherichia coli) (UniProt P0A6B7).
For data set [2], the target named is BsSufU (Bacillus subtilis) (UniProt O32163).
BsSufU (Bacillus subtilis), sequence (O32163 whole entry): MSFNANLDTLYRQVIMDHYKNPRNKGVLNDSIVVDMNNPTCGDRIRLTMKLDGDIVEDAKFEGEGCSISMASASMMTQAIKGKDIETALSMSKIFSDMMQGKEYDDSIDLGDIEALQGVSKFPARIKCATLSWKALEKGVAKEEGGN

BsSufS, sequence (O32164 whole entry): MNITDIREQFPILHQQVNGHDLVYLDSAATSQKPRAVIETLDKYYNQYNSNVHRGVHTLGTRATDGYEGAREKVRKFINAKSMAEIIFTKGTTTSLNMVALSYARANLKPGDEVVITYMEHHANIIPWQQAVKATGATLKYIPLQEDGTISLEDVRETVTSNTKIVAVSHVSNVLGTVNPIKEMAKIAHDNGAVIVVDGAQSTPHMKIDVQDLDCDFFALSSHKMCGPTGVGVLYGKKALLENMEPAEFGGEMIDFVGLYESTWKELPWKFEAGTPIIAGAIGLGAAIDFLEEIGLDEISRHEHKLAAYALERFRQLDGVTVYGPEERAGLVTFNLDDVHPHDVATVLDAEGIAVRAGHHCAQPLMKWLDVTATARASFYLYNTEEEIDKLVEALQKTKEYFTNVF
CyaY, sequence (P27838 whole entry): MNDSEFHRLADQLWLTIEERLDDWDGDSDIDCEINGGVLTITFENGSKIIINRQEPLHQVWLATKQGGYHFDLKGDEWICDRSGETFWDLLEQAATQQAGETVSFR
BsFra (frataxin), sequence (Q797E6 whole entry): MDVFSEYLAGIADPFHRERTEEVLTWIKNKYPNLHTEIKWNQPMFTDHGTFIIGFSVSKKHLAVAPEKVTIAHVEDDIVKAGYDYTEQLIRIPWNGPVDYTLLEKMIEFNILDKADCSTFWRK
BsHemH (Bacillus subtilis), sequence (P32396 whole entry): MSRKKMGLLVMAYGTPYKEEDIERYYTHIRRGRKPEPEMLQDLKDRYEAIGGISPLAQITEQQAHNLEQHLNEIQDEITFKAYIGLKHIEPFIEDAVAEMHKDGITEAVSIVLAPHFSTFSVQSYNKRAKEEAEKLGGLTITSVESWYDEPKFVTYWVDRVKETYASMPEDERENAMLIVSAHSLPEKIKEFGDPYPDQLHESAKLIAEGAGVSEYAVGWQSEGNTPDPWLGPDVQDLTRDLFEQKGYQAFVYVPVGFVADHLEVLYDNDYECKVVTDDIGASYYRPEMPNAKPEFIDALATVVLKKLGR
IscS (Escherichia coli), sequence (P0A6B7 whole entry): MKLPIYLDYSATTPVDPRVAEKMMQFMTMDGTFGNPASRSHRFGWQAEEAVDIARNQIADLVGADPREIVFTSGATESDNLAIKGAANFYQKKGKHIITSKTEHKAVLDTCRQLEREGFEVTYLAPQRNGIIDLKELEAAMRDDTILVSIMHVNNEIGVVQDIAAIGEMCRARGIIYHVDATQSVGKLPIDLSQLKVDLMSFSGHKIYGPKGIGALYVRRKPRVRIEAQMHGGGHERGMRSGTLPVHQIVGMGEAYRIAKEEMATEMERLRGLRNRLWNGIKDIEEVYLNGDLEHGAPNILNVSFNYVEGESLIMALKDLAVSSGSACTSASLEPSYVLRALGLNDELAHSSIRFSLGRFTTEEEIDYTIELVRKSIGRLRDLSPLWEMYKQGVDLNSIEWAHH

Regarding BsFra (frataxin) (from UniProt Q797E6), in data set [1], the equilibrium dissociation constant (Kd) is 1630 nM.

Turning to CyaY (from UniProt P27838), the dissociation constant (Kd) with IscS (Escherichia coli) was 18500 nM.

With BsSufS (from UniProt O32164), in data set [2], the Kd is 2630 nM.
